{"source": "paper PMC5372246", "about": "“Co-production of hydrogen and ethanol from glucose in Escherichia coli by activation of pentose-phosphate pathway through deletion of phosphoglucose isomerase (pgi) and overexpression of glucose-6-phosphate dehydrogenase (zwf) and 6-phosphogluconate dehydrogenase (gnd)” (Biotechnology for Biofuels, 2017)", "substrate": "NC(=O)c1ccc[n+]([C@@H]2O[C@H](COP(=O)(O)OP(=O)(O)OC[C@H]3O[C@@H](n4cnc5c(N)ncnc54)[C@H](OP(=O)(O)O)[C@@H]3O)[C@@H](O)[C@H]2O)c1", "experiment": "purified protein", "format": "biochemical, Escherichia coli", "details": "co-substrate 6-phosphogluconate, general assay: Tris-HCl pH 7.5, 1 mM MgCl2, 30 °C", "data": [{"protein": "Gnd (GE), 6-phosphogluconate dehydrogenase (Escherichia coli K-12) (protein, full-length, C-terminal His-tag, Ni-NTA purified from E. coli, 51 kDa on SDS-PAGE) MSKQQIGVVGMAVMGRNLALNIESRGYTVSIFNRSREKTEEVIAENPGKKLVPYYTVKEFVESLETPRRILLMVKAGAGTDAAIDSLKPYLDKGDIIIDGGNTFFQDTIRRNRELSAEGFNFIGTGVSGGEEGALKGPSIMPGGQKEAYELVAPILTKIAAVAEDGEPCVTYIGADGAGHYVKMVHNGIEYGDMQLIAEAYSLLKGGLNLTNEELAQTFTEWNNGELSSYLIDITKDIFTKKDEDGNYLVDVILDEAANKGTGKWTSQSALDLGEPLSLITESVFARYISSLKDQRVAASKVLSGPQAQPAGDKAEFIEKVRRALYLGKIVSYAQGFSQLRAASEEYNWDLNYGEIAKIFRAGCIIRAQFLQKITDAYAENPQIANLLLAPYFKQIADDYQQALRDVVAYAVQNGIPVPTFSAAVAYYDSYRAAVLPANLIQAQRDYFGAHTYKRIDKEGVFHTEWLD", "values": [{"measurement": "Km", "value": 40, "unit": "µM"}]}]}
